We go through 26 sequences from the Immune Epitope Database (IEDB).

Among the targets are HLA-A*11:01; HLA-A*33:01; HLA-A*03:01; HLA-A*68:01; HLA-A*31:01.
Holding throughout (experiment): IEDB peptide-MHC binding, purified MHC/competitive/radioactivity; filed as Kd, often an IC50 or EC50 that approximates it; ≥ and ≤ were set here for values at or beyond the usual limits of such assays
Where [1] appears, read: source organism: Vaccinia virus WR.
The mark [2] stands for this setting: source organism: Dengue virus 4 Philippines/H241/1956.
The mark [3] stands for this setting: source organism: SARS coronavirus Tor2.
Setting [4] is: source organism: Dengue virus 1 Brazil/97-11/1997.
[5] abbreviates: source organism: Dengue virus 2 Jamaica/1409/1983.
The mark [6] stands for this setting: source organism: Mammarenavirus machupoense.
Setting [7] is: source organism: Dengue virus 2 Peru/IQT2913/1996.

On to AALFMYYAKR, for which the dissociation constant Kd (usually the constant that tells how readily two partners part at equilibrium) with HLA-A*11:01 (setting [1]) amounted to 178 nM; in the assay with HLA-A*33:01 (setting [1]), 837 nM; with HLA-A*03:01 (setting [1]) it was 312 nM; with HLA-A*68:01 (setting [1]) it was 33.1 nM; with HLA-A*31:01 (setting [1]), 16.8 nM.
With AIKILTGFRK, the Kd with HLA-A*11:01 (setting [2]) came out at 1760 nM; in the assay with HLA-A*03:01 (setting [2]), 103 nM.
On to AITPTIEDDK, for which the equilibrium dissociation constant (Kd) with HLA-A*11:01 (setting [1]) was 115 nM; with HLA-A*33:01 (setting [1]), no less than 42600 nM; with HLA-A*03:01 (setting [1]) it was 487 nM; with HLA-A*68:01 (setting [1]), 6640 nM; with HLA-A*31:01 (setting [1]), no less than 47900 nM.
On to ALLSTDGNK, for which the Kd in the assay with HLA-A*11:01 (setting [3]) was 494 nM; with HLA-A*33:01 (setting [3]) it was no less than 77700 nM; in the assay with HLA-A*03:01 (setting [3]), 52.5 nM; with HLA-A*68:01 (setting [3]), no less than 23700 nM; in the assay with HLA-A*31:01 (setting [3]), 10200 nM.
Regarding ATKIIALNK, the equilibrium dissociation constant (Kd) with HLA-A*11:01 (setting [3]) is 334 nM; with HLA-A*33:01 (setting [3]) it was no less than 77700 nM; with HLA-A*03:01 (setting [3]), 1360 nM; with HLA-A*68:01 (setting [3]), 15900 nM; with HLA-A*31:01 (setting [3]), 840 nM.
On to ATMLEYVRY, for which the dissociation constant Kd with HLA-A*11:01 (setting [1]) was 23.5 nM; with HLA-A*33:01 (setting [1]) it was no less than 77700 nM; in the assay with HLA-A*03:01 (setting [1]), 1700 nM; with HLA-A*68:01 (setting [1]) it was no less than 29400 nM; in the assay with HLA-A*31:01 (setting [1]) it was 3410 nM.
As to ATTVITPMMR, the equilibrium dissociation constant (Kd) is 141 nM with HLA-A*11:01 (setting [4]), 368 nM with HLA-A*68:01 (setting [4]) and 125 nM with HLA-A*31:01 (setting [4]).
With AVHDFFKFR, the dissociation constant (Kd) with HLA-A*11:01 (setting [3]) worked out at 7.56 nM; with HLA-A*33:01 (setting [3]), 273 nM; with HLA-A*03:01 (setting [3]), 7140 nM; with HLA-A*68:01 (setting [3]), 11.3 nM; with HLA-A*31:01 (setting [3]) it was 4.9 nM.
Regarding AVILQNAWK, in the assay with HLA-A*11:01 (setting [5]), the Kd came to 128 nM.
Turning to AVLMHKGKR, the Kd in the assay with HLA-A*31:01 (setting [5]) is 64.7 nM.
As to CVDIPGIPK, the Kd is 19.9 nM in the assay with HLA-A*11:01 (setting [3]); no less than 37900 nM with HLA-A*33:01 (setting [3]); 149 nM with HLA-A*03:01 (setting [3]); 102 nM in the assay with HLA-A*68:01 (setting [3]); no less than 10000 nM with HLA-A*31:01 (setting [3]).
Regarding DFYDFAVSK, the equilibrium dissociation constant (Kd) was determined as 8940 nM with HLA-A*11:01 (setting [3]); 9.36 nM in the assay with HLA-A*33:01 (setting [3]); 4110 nM with HLA-A*03:01 (setting [3]); 56.9 nM with HLA-A*68:01 (setting [3]); 12400 nM with HLA-A*31:01 (setting [3]).
Turning to DIICEDAMY, the Kd in the assay with HLA-A*11:01 (setting [1]) was no less than 77900 nM; with HLA-A*33:01 (setting [1]), no less than 20200 nM; with HLA-A*03:01 (setting [1]), no less than 78000 nM; with HLA-A*68:01 (setting [1]), 4550 nM; with HLA-A*31:01 (setting [1]), no less than 77900 nM.
As to DLIVTFRER, the Kd amounted to 8140 nM with HLA-A*11:01 (setting [1]); 14.8 nM with HLA-A*33:01 (setting [1]); 12700 nM with HLA-A*03:01 (setting [1]); 19.8 nM in the assay with HLA-A*68:01 (setting [1]); 509 nM in the assay with HLA-A*31:01 (setting [1]).
For DSIPISELSR, in that order: 986 nM, 25.5 nM, no less than 44900 nM, 12.3 nM and 4140 nM.
In the same order, the values of EIITGNKVK are 1200 nM, no less than 77700 nM, no less than 78000 nM, 233 nM and no less than 77900 nM.
For EMVDELVTRK, in that order: 8710 nM, no less than 70000 nM, no less than 70100 nM, 1210 nM and no less than 70000 nM.
As to EWMLIAAKMK, the equilibrium dissociation constant (Kd) in the assay with HLA-A*11:01 (setting [6]) is no less than 24100 nM; in the assay with HLA-A*33:01 (setting [6]), 49 nM; in the assay with HLA-A*03:01 (setting [6]), 5950 nM; with HLA-A*68:01 (setting [6]), 3530 nM; with HLA-A*31:01 (setting [6]) it was 1260 nM.
Regarding FTDISMSLYK, the equilibrium dissociation constant (Kd) was 8.84 nM with HLA-A*11:01 (setting [1]); 4210 nM in the assay with HLA-A*33:01 (setting [1]); 55.9 nM in the assay with HLA-A*03:01 (setting [1]); 24.9 nM with HLA-A*68:01 (setting [1]); 9320 nM in the assay with HLA-A*31:01 (setting [1]).
As for FVASFRLFAR, the dissociation constant Kd with HLA-A*11:01 (setting [3]) is 50 nM; with HLA-A*33:01 (setting [3]), 14.1 nM; with HLA-A*03:01 (setting [3]), 94.2 nM; in the assay with HLA-A*68:01 (setting [3]) it was 0.106 nM; with HLA-A*31:01 (setting [3]), 6.64 nM.
In the case of FVCKHSMVDR, the dissociation constant Kd with HLA-A*33:01 (setting [7]) was 122 nM; in the assay with HLA-A*68:01 (setting [7]), 1050 nM; in the assay with HLA-A*31:01 (setting [7]), 117 nM.
As to GILKKLSSIK, the equilibrium dissociation constant (Kd) with HLA-A*11:01 (setting [1]) is 375 nM; with HLA-A*33:01 (setting [1]) it was no less than 70000 nM; with HLA-A*03:01 (setting [1]), 13.9 nM; with HLA-A*68:01 (setting [1]), no less than 20100 nM; in the assay with HLA-A*31:01 (setting [1]) it was 5480 nM.
Take GLLFRRLTSR: the Kd with HLA-A*03:01 (setting [4]) was 170 nM; in the assay with HLA-A*31:01 (setting [4]) it was no less than 53700 nM.
Consider GLTTHCTKLR, for which the Kd in the assay with HLA-A*11:01 (setting [1]) stood at 4630 nM; with HLA-A*33:01 (setting [1]) it was 4210 nM; with HLA-A*03:01 (setting [1]) it was 5180 nM; in the assay with HLA-A*68:01 (setting [1]) it was 12100 nM; with HLA-A*31:01 (setting [1]), 511 nM.
For GSTAEQLSK, in that order: 14 nM, no less than 77700 nM, 307 nM, no less than 43000 nM and no less than 77900 nM.
GVIADYNYK: the Kd worked out at 5.97 nM in the assay with HLA-A*11:01 (setting [3]); 4910 nM with HLA-A*33:01 (setting [3]); 23.8 nM with HLA-A*03:01 (setting [3]); 72 nM with HLA-A*68:01 (setting [3]); 126 nM in the assay with HLA-A*31:01 (setting [3]).
